Data as given in patent US20220160842A1, “METHOD OF TREATING INFECTIVE ENDOCARDITIS” (priority 2019, published 2022).
In brackets after ≈: the same amount, converted by molar mass. Several values for one entry are separate records, joined by “and”; a condition that tells them apart may be missing. Equal values may be shown once. Read-outs that look alike come from different tables or passages of the source. Marks after values point to notes of the source that are not given here.

How the values were obtained:
[1] = test system: S. aureus (MRSA); assay: MIC by broth microdilution; type: cell-based, Staphylococcus aureus; conditions: S. aureus (MRSA), N=74
Method: (§1) Minimal inhibitory concentrations (MICs) of exebacase against staphylococci were determined by broth microdilution (BMD) using a nonstandard antimicrobial susceptibility testing (AST) medium comprised of cation-adjusted Mueller Hinton broth (caMHB) supplemented with horse serum (Sigma Aldrich) and dithiothreitol (DTT; Sigma Aldrich) to final concentrations of 25% and 0.5 mM, respectively. This medium, referred to as caMHB-HSD, is approved for use in exebacase AST by the Clinical and Laboratory Standards Institute (CLSI) (CLSI. 2017, Jan. 16-17. AST Subcommittee Working Group Meetings and Plenary. AST Meeting Files & Resources, clsi.org/education/microbiology/ast/ast-meeting-files-resources/. Additional supplementation with 2.5% lysed red blood cells (Remel™, ThermoFisher) was included for analyses of streptococcal isolates, as recommended by CLSI. See CLSI, 2015. Methods for Dilution Antimicrobial Susceptibility Tests for Bacteria That Grow Aerobically, 10th Edition. Clinical and Laboratory Standards Institute, Wayne, Pa.
(§2) Daptomycin (Sigma Aldrich) and vancomycin hydrochloride (Sigma Aldrich) were tested following the reference BMD method for each. See CLSI. 2015. Methods for Dilution Antimicrobial Susceptibility Tests for Bacteria That Grow Aerobically, 10th Edition. Clinical and Laboratory Standards Institute, Wayne, Pa.

[2] = test system: S. aureus (MSSA); assay: MIC by broth microdilution; type: cell-based, Staphylococcus aureus; conditions: S. aureus (MSSA), N=73
Method: as §1, §2

[3] = test system: all staphylococci tested; assay: MIC by broth microdilution; type: cell-based
Method: as §2

[4] = test system: S. anginosus; assay: MIC by broth microdilution; type: cell-based, Streptococcus anginosus; conditions: S. anginosus (viridans), N=10
Method: as §1, §2

[5] = test system: S. mitis; assay: MIC by broth microdilution; type: cell-based, Streptococcus mitis; conditions: S. mitis (viridans), N=18
Method: as §1, §2

[6] = test system: MRSA strain MW2; assay: Left-sided catheter-induced IE model due to MRSA, CF-301 dose strategies plus DAP (Example 4); type: in vivo, rabbits
Method: Briefly, female New Zealand White rabbits (Harlan Laboratories; 2.3 to 2.5 kg body weight) underwent transcarotid-transaortic valve catheterization, and IE was induced by IV infection of ˜1-2×10^5 cfu of MW2 at 48 hours (h) after catheterization. […] See also FIG. 4.
On day 5, animals were sacrificed, and target tissues (cardiac vegetations, kidney and spleen) were removed and quantitatively cultured. Tissue MRSA counts are given as the mean log10 CFU/g of tissue±SD).
A two-tailed Student's t test was used to analyze the tissue MRSA counts between different groups. P values <0.05 were considered significant. No adjustment was made for all the P values reported in this study.

[7] = test system: S. epidermidis; assay: MIC by broth microdilution; type: cell-based, Staphylococcus epidermidis; conditions: N=52
Method: as §1, §2

[8] = test system: Staphylococcus hominis; assay: MIC by broth microdilution; type: cell-based; conditions: n=2 strains, listed as exebacase
Method: as §1

[9] = test system: S. pseudintermedius; assay: MIC by broth microdilution; type: cell-based, Staphylococcus pseudintermedius; conditions: each of n=6 isolates
Method: as §1

[10] = test system: S. sciuri; assay: MIC by broth microdilution; type: cell-based, Staphylococcus sciuri; conditions: n=3 isolates
Method: as §1

[11] = test system: S. simulans; assay: MIC by broth microdilution; type: cell-based, Staphylococcus simulans; conditions: n=1 isolate
Method: as §1

[12] = test system: S. hyicus; assay: MIC by broth microdilution; type: cell-based, Staphylococcus hyicus; conditions: n=1 isolate
Method: as §1

[13] = test system: S. intermedius; assay: MIC by broth microdilution; type: cell-based, Streptococcus intermedius; conditions: S. intermedius (viridans), N=10
Method: as §1, §2

[14] = test system: S. aureus bacteremia/endocarditis; assay: Phase II clinical study, CF-301 plus standard of care antibiotics; type: in vivo, human
Method: These 116 patients constituted the microbiological intent to treat (mITT) population of a Phase II clinical study and was the primary efficacy analysis population. The primary efficacy endpoint was the clinical responder rate (CRR) at Day 14. Diagnosis and clinical outcomes were determined by a blinded Adjudication Committee.

[15] = healthy subjects, estimated previously; cited from earlier work
[16] = Staphylococcus aureus, read-out: MIC50
[17] = Staphylococcus aureus, read-out: MIC90
[18] = all CF-301 doses given in addition to DAP

In the case of `CCCCCCCCCC(=O)N[C@@H](Cc1c[nH]c2ccccc12)C(=O)N[C@H](CC(N)=O)C(=O)N[C@@H](CC(=O)O)C(=O)N[C@@H]1C(=O)NCC(=O)N[C@@H](CCCN)C(=O)N[C@@H](CC(=O)O)C(=O)N[C@H](C)C(=O)N[C@@H](CC(=O)O)C(=O)NCC(=O)N[C@H](CO)C(=O)N[C@@H]([C@H](C)CC(=O)O)C(=O)N[C@@H](CC(=O)c2ccccc2N)C(=O)O[C@@H]1C` [DAP, Daptomycin], the “MIC Range” value [1] is reported as 0.125 to 1 µg/mL, the MIC50 [1, 16] is reported as 0.25 µg/mL (≈ 0.154 µM) and the MIC90 [1, 17] is reported as 0.5 µg/mL (≈ 0.309 µM). The “MIC Range” value [2] was 0.125 to 0.5 µg/mL, the MIC50 [2, 16] was 0.25 µg/mL (≈ 0.154 µM) and the MIC90 [2, 17] was 0.25 µg/mL (≈ 0.154 µM). The MIC Range [3] was 0.125 to 2 µg/mL, the “MIC Range” value [4] was 0.25 to 0.5 µg/mL and the MIC50 ([4]; Streptococcus anginosus, read-out: MIC50) was 0.5 µg/mL (≈ 0.309 µM). For the same molecule, the MIC90 ([4]; Streptococcus anginosus, read-out: MIC90) was 0.5 µg/mL (≈ 0.309 µM), the “MIC Range” value [5] was 0.125 to 1 µg/mL and the MIC50 ([5]; Streptococcus mitis, read-out: MIC50) was 0.5 µg/mL (≈ 0.309 µM). The MIC90 ([5]; Streptococcus mitis, read-out: MIC90) was 1 µg/mL (≈ 0.617 µM), the “MRSA density, Mean Log10 CFU/g tissue ± SD, Kidneys” value ([6]; DAP alone 4 mg/kg QD) was 4.62 ± 1.16^a Log10 CFU/g tissue and the “MRSA density, Mean Log10 CFU/g tissue ± SD, Spleen” value ([6]; DAP alone 4 mg/kg QD) was 4.04 ± 0.87^a Log10 CFU/g tissue. The “reduction in MRSA densities in all three target tissues vs vehicle controls” value ([6]; DAP alone 4 mg/kg iv QD x 4 day) was 2-3 log10 cfu/g.

B1: CF-301: anti-staphylococcal lysin encoded within a prophage of the Streptococcus suis genome, SEQ ID NO: 2 with or without initial methionine (protein, listed as Streptococcus suis)
chain: MTTVNEALNNVRAQVGSGVSVGNGECYALASWYERMISPDATVGLGAGVGWVSGAIGDTISAKNIGSSYNWQANGWTVSTSGPFKAGQIVTLGATPGNPYGHVVIVEAVDGDRLTILEQNYGGKRYPVRNYYSAASYRQQVVHYITPPGTVAQSAPNLAGSRSYRETGTMTVTVDALNVRRAPNTSGEIVAVYKRGESFDYDTVIIDVNGYVWVSYIGGSGKRNYVATGATKDGKRFGNAWGTFK
With B1 the MIC50 [1] was 0.5 µg/mL, the MIC90 [1] was 1 µg/mL and the “MIC Range” value [1] was 0.5 to 2 µg/mL. For the same molecule, the MIC50 [2] was 0.5 µg/mL, the MIC90 [2] was 0.5 µg/mL and the “MIC Range” value [2] was 0.25 to 1 µg/mL. For the same molecule, the MIC50 [7] was 0.5 µg/mL, the MIC90 [7] was 0.5 µg/mL and the “MIC Range” value [7] was 0.125 to 2 µg/mL. For the same molecule, the MIC [8] was 0.125 µg/mL and 0.25 µg/mL, the MIC [9] was 0.25 µg/mL and the MIC [10] was 2 µg/mL. It also gave an MIC [11] of 0.125 µg/mL, an MIC [12] of 0.25 µg/mL and an MIC50 [4] of 32 µg/mL. For the same molecule, the MIC90 [4] was 64 µg/mL, the “MIC Range” value [4] was 1 to 64 µg/mL and the MIC50 [5] was 2 µg/mL. For the same molecule, the MIC90 [5] was 8 µg/mL, the “MIC Range” value [5] was 0.5 to 64 µg/mL and the MIC50 [13] was 0.25 µg/mL. The MIC90 [13] was 0.25 µg/mL, the “MIC Range” value [13] was 0.06 to 0.5 µg/mL and the “further reduction of MRSA densities in all target tissues vs DAP alone” value [6, 18] was “about 3 log10 cfu/g”. For the same molecule, the “reduction of MRSA densities in all target tissues vs vehicle control groups” value [6, 18] was “about 6 log10 cfu/g”, the hypersensitivity ([14]; CF-301 treatment group) was “no reports of hypersensitivity” and the “incidence of treatment emergent adverse events (TEAEs)” value ([14]; CF-301 treatment group) was 88.9%. The “serious TEAEs” value ([14]; CF-301 treatment group) was 47.2%, the “CRR higher than in patients treated with standard of care antibiotics alone” value ([14]; MRSA-infected patients) was “about 40%” and the CRR ([14]; MRSA-infected patients, CF-301 and standard of care antibiotics) was 74.10%. The tolerability ([14]; addition of CF-301 to a standard of care antibiotic regimen) was “well-tolerated”, the died ([14]; from study drug administration through 28 days after the end of SOC antibiotic treatment) was 19.4% and the “clinical responder rate (CRR) at Day 14” value ([14]; mITT population, single two hour infusion of CF-301 plus SOC antibiotics) was 70.4%. The CRR ([14]; patients with bacteremia alone) was 81.8%, the CRR ([14]; subset with bacteremia/right-sided endocarditis) was 80% and the “effect of age on AUC0-24 or Cmax” value (covariate on peripheral clearance) was “less than 4%”. For the same molecule, the “CL lower than in healthy subjects” value (patients vs healthy subjects) was 40%, the “Vd lower than in healthy subjects” value (patients vs healthy subjects) was 17% and the “fold higher AUC0-24 or Cmax than patients with normal renal function” value (patients with moderate and severe renal impairment, expected from PPK model) was 1.3 to 2 fold. For the same molecule, the Total volume distribution (patients, PPK model) was 20.2 L, the “central compartment (Vc)” value (patients, PPK model, RSE 8.2%) was 4.5 L and the Clearance (patients, three-compartment PPK model, RSE 5.5%) was 4.2 Liters (L)/hour (hr). The CL [15] was 7.1 L/h and the “volume distribution (Vd)” value [15] was 27.7 L.
